Assay results reported in patent US20210246166A1 (Bayer, published 2021).
Numbered stars: 1 amine (or outer) side, 2 acyl side, 3 side chain; on linkers, the order of the positions; unused ones are H or OH. Bridge positions count the residues as written; N and C are the ends. Square brackets hold non-standard residues; d marks the D form. Ends that are not written are not given here. * marks the point of attachment. (S)‑4‑Piperazine‑2‑carboxylic acid = (S)-4-piperazine-2-carboxylic acid; 4‑Aminomethylphenylacetic acid = O=C(Cc1ccc(CN[*:1])cc1)[*:2]; NHCH2(1,3-C6H4)CH2CO = O=C(Cc1cccc(CN[*:1])c1)[*:2]; Phe(3-COOH) = N[C@@H](Cc1cccc(C(=O)O)c1)C(=O)O; Piperidin‑4‑ylacetic acid = O=C(CC1CCNCC1)*; Oic = O=C(O)[C@@H]1C[C@@H]2CCCC[C@@H]2N1; PEG6 = NCCOCCOCCOCCOCCOCCOCCC(=O)O; tBuAla = CC(C)(C)C[C@H](N)C(=O)O; PEG4 = NCCOCCOCCOCCOCCC(=O)O; Pen = CC(C)(S)[C@H](N)C(=O)O; NMeC = CN[C@@H](CS)C(=O)O; PEG3 = NCCOCCOCCOCCC(=O)O; Orn = NCCC[C@H](N)C(=O)O; Sar = CNCC(=O)O

T1: Recombinant human MASP1 enzyme (fragment corresponding to amino acids 297-699, C-terminal His Tag) (human, UniProt P48740 297-699)
T1 sequence: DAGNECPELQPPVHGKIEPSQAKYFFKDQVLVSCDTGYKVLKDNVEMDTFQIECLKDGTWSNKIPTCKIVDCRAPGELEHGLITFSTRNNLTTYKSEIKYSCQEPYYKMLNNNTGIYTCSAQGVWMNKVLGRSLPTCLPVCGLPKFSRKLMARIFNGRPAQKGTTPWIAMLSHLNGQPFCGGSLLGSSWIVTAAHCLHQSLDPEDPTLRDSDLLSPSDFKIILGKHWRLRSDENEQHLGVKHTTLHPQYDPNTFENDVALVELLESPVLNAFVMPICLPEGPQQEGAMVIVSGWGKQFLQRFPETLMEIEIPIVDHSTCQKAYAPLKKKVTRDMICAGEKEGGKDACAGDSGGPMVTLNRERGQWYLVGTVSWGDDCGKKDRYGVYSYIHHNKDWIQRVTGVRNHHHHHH

B1: ((N-Me)G)-IC+SRS-((tBu)A)-PPI-(Pen)+IP-(PEG3(16atoms))-OH (peptide)
peptide: [Sar]ICSRS[tBuAla]PPI[Pen]IP[PEG4]-OH
modifications: disulfide 3-11; N-terminus assumed
SMILES: CC[C@H](C)[C@H](NC(=O)CNC)C(=O)N[C@H]1CSSC(C)(C)[C@@H](C(=O)N[C@H](C(=O)N2CCC[C@H]2C(=O)NCCOCCOCCOCCOCCC(=O)O)[C@@H](C)CC)NC(=O)[C@H]([C@@H](C)CC)NC(=O)[C@@H]2CCCN2C(=O)[C@@H]2CCCN2C(=O)[C@H](CC(C)(C)C)NC(=O)[C@H](CO)NC(=O)[C@H](CCCNC(=N)N)NC(=O)[C@H](CO)NC1=O
B2: aIC+SRSLP-(Oic)-I-(Pen)-+IP-(3-Aminomethylphenylacetic acid)-OH (peptide)
peptide: [dA]ICSRSLP[Oic]I[Pen]IP[NHCH2(1,3-C6H4)CH2CO]-OH
modifications: disulfide 3-11; N-terminus assumed
SMILES: CC[C@H](C)[C@H](NC(=O)[C@@H](C)N)C(=O)N[C@H]1CSSC(C)(C)[C@@H](C(=O)N[C@H](C(=O)N2CCC[C@H]2C(=O)NCc2cccc(CC(=O)O)c2)[C@@H](C)CC)NC(=O)[C@H]([C@@H](C)CC)NC(=O)[C@@H]2C[C@@H]3CCCC[C@@H]3N2C(=O)[C@@H]2CCCN2C(=O)[C@H](CC(C)C)NC(=O)[C@H](CO)NC(=O)[C@H](CCCNC(=N)N)NC(=O)[C@H](CO)NC1=O
B3: ((N-Me)G)-IC+SRS-((tBu)A)-PPI-(Pen)+IP-(Orn)-D-OH (peptide)
peptide: [Sar]ICSRS[tBuAla]PPI[Pen]IP[Orn]D-OH
modifications: disulfide 3-11; N-terminus assumed
SMILES: CC[C@H](C)[C@H](NC(=O)CNC)C(=O)N[C@H]1CSSC(C)(C)[C@@H](C(=O)N[C@H](C(=O)N2CCC[C@H]2C(=O)N[C@@H](CCCN)C(=O)N[C@@H](CC(=O)O)C(=O)O)[C@@H](C)CC)NC(=O)[C@H]([C@@H](C)CC)NC(=O)[C@@H]2CCCN2C(=O)[C@@H]2CCCN2C(=O)[C@H](CC(C)(C)C)NC(=O)[C@H](CO)NC(=O)[C@H](CCCNC(=N)N)NC(=O)[C@H](CO)NC1=O
B4: ((N-Me)G)-IC+SRSLP-(Oic)-I-(Pen)+IP-((3-Carboxy)F)-OH (peptide)
peptide: [Sar]ICSRSLP[Oic]I[Pen]IP[Phe(3-COOH)]-OH
modifications: disulfide 3-11; N-terminus assumed
SMILES: CC[C@H](C)[C@H](NC(=O)CNC)C(=O)N[C@H]1CSSC(C)(C)[C@@H](C(=O)N[C@H](C(=O)N2CCC[C@H]2C(=O)N[C@@H](Cc2cccc(C(=O)O)c2)C(=O)O)[C@@H](C)CC)NC(=O)[C@H]([C@@H](C)CC)NC(=O)[C@@H]2C[C@@H]3CCCC[C@@H]3N2C(=O)[C@@H]2CCCN2C(=O)[C@H](CC(C)C)NC(=O)[C@H](CO)NC(=O)[C@H](CCCNC(=N)N)NC(=O)[C@H](CO)NC1=O
B5: ((N-Me)G)-IC+SRS-((tBu)A)-PPI-(Pen)+IP-((3-Carboxy)F)-OH (peptide)
peptide: [Sar]ICSRS[tBuAla]PPI[Pen]IP[Phe(3-COOH)]-OH
modifications: disulfide 3-11; N-terminus assumed
SMILES: CC[C@H](C)[C@H](NC(=O)CNC)C(=O)N[C@H]1CSSC(C)(C)[C@@H](C(=O)N[C@H](C(=O)N2CCC[C@H]2C(=O)N[C@@H](Cc2cccc(C(=O)O)c2)C(=O)O)[C@@H](C)CC)NC(=O)[C@H]([C@@H](C)CC)NC(=O)[C@@H]2CCCN2C(=O)[C@@H]2CCCN2C(=O)[C@H](CC(C)(C)C)NC(=O)[C@H](CO)NC(=O)[C@H](CCCNC(=N)N)NC(=O)[C@H](CO)NC1=O
B6: ((N-Me)G)-IC+SRSLP-(Oic)-I-(Pen)+IP-(3-Aminomethylphenylacetic acid)-OH (peptide)
peptide: [Sar]ICSRSLP[Oic]I[Pen]IP[NHCH2(1,3-C6H4)CH2CO]-OH
modifications: disulfide 3-11; N-terminus assumed
SMILES: CC[C@H](C)[C@H](NC(=O)CNC)C(=O)N[C@H]1CSSC(C)(C)[C@@H](C(=O)N[C@H](C(=O)N2CCC[C@H]2C(=O)NCc2cccc(CC(=O)O)c2)[C@@H](C)CC)NC(=O)[C@H]([C@@H](C)CC)NC(=O)[C@@H]2C[C@@H]3CCCC[C@@H]3N2C(=O)[C@@H]2CCCN2C(=O)[C@H](CC(C)C)NC(=O)[C@H](CO)NC(=O)[C@H](CCCNC(=N)N)NC(=O)[C@H](CO)NC1=O
B7: ((N-Me)G)-IC+SRSLP-(Oic)-I-(Pen)+IP-(4-Aminomethylphenylacetic acid)-OH (peptide)
peptide: [Sar]ICSRSLP[Oic]I[Pen]IP[4‑Aminomethylphenylacetic acid]-OH
modifications: disulfide 3-11; N-terminus assumed
SMILES: CC[C@H](C)[C@H](NC(=O)CNC)C(=O)N[C@H]1CSSC(C)(C)[C@@H](C(=O)N[C@H](C(=O)N2CCC[C@H]2C(=O)NCc2ccc(CC(=O)O)cc2)[C@@H](C)CC)NC(=O)[C@H]([C@@H](C)CC)NC(=O)[C@@H]2C[C@@H]3CCCC[C@@H]3N2C(=O)[C@@H]2CCCN2C(=O)[C@H](CC(C)C)NC(=O)[C@H](CO)NC(=O)[C@H](CCCNC(=N)N)NC(=O)[C@H](CO)NC1=O
B8: (Orn)-IC+SRS-((tBu)A)-PPI-((N-Me)C)+IPD-OH (peptide)
peptide: [Orn]ICSRS[tBuAla]PPI[NMeC]IPD-OH
modifications: disulfide 3-11; N-terminus assumed
SMILES: CC[C@H](C)[C@H](NC(=O)[C@@H](N)CCCN)C(=O)N[C@H]1CSSC[C@@H](C(=O)N[C@H](C(=O)N2CCC[C@H]2C(=O)N[C@@H](CC(=O)O)C(=O)O)[C@@H](C)CC)N(C)C(=O)[C@H]([C@@H](C)CC)NC(=O)[C@@H]2CCCN2C(=O)[C@@H]2CCCN2C(=O)[C@H](CC(C)(C)C)NC(=O)[C@H](CO)NC(=O)[C@H](CCCNC(=N)N)NC(=O)[C@H](CO)NC1=O
B9: ((N-Me)G)-IC+SRSLP-(Oic)-I-(Pen)+IP-(PEG5(22 atoms))-OH (peptide)
peptide: [Sar]ICSRSLP[Oic]I[Pen]IP[PEG6]-OH
modifications: disulfide 3-11; N-terminus assumed
SMILES: CC[C@H](C)[C@H](NC(=O)CNC)C(=O)N[C@H]1CSSC(C)(C)[C@@H](C(=O)N[C@H](C(=O)N2CCC[C@H]2C(=O)NCCOCCOCCOCCOCCOCCOCCC(=O)O)[C@@H](C)CC)NC(=O)[C@H]([C@@H](C)CC)NC(=O)[C@@H]2C[C@@H]3CCCC[C@@H]3N2C(=O)[C@@H]2CCCN2C(=O)[C@H](CC(C)C)NC(=O)[C@H](CO)NC(=O)[C@H](CCCNC(=N)N)NC(=O)[C@H](CO)NC1=O
B10: (Piperidin-4-ylacetic acid)-IC+SRS-((tBu)A)-PPIC+IPD-OH (peptide)
peptide: {Piperidin‑4‑ylacetic acid}-ICSRS[tBuAla]PPICIPD-OH
modifications: disulfide 2-10
SMILES: CC[C@H](C)[C@H](NC(=O)CC1CCNCC1)C(=O)N[C@H]1CSSC[C@@H](C(=O)N[C@H](C(=O)N2CCC[C@H]2C(=O)N[C@@H](CC(=O)O)C(=O)O)[C@@H](C)CC)NC(=O)[C@H]([C@@H](C)CC)NC(=O)[C@@H]2CCCN2C(=O)[C@@H]2CCCN2C(=O)[C@H](CC(C)(C)C)NC(=O)[C@H](CO)NC(=O)[C@H](CCCNC(=N)N)NC(=O)[C@H](CO)NC1=O
B11: ((N-Me)G)-IC+SRSLP-(Oic)-I-(Pen)+IPD-(PEG2(13 atoms))-OH (peptide)
peptide: [Sar]ICSRSLP[Oic]I[Pen]IPD[PEG3]-OH
modifications: disulfide 3-11; N-terminus assumed
SMILES: CC[C@H](C)[C@H](NC(=O)CNC)C(=O)N[C@H]1CSSC(C)(C)[C@@H](C(=O)N[C@H](C(=O)N2CCC[C@H]2C(=O)N[C@@H](CC(=O)O)C(=O)NCCOCCOCCOCCC(=O)O)[C@@H](C)CC)NC(=O)[C@H]([C@@H](C)CC)NC(=O)[C@@H]2C[C@@H]3CCCC[C@@H]3N2C(=O)[C@@H]2CCCN2C(=O)[C@H](CC(C)C)NC(=O)[C@H](CO)NC(=O)[C@H](CCCNC(=N)N)NC(=O)[C@H](CO)NC1=O
B12: (beta-P)-IC+SRS-((tBu)A)-PPI-(Pen)+IPD-OH (peptide)
peptide: PICSRS[tBuAla]PPI[Pen]IPD-OH
modifications: disulfide 3-11; N-terminus assumed
SMILES: CC[C@H](C)[C@H](NC(=O)[C@@H]1CCCN1)C(=O)N[C@H]1CSSC(C)(C)[C@@H](C(=O)N[C@H](C(=O)N2CCC[C@H]2C(=O)N[C@@H](CC(=O)O)C(=O)O)[C@@H](C)CC)NC(=O)[C@H]([C@@H](C)CC)NC(=O)[C@@H]2CCCN2C(=O)[C@@H]2CCCN2C(=O)[C@H](CC(C)(C)C)NC(=O)[C@H](CO)NC(=O)[C@H](CCCNC(=N)N)NC(=O)[C@H](CO)NC1=O

molecular target: T1, Recombinant human MASP1 enzyme …; assay: cell-based or functional assay

Row | Binder | human MASP1 IC50 [nM]
1 | B1 | 2.1
2 | [Sar]ICSRSLP[Oic]I[Pen]I[(S)‑4‑Piperazine‑2‑carboxylic acid]-OH (disulfide 3-11) [((N-Me))-GIC+SRSLP-(Oic)-I-(Pen)+I-((S)-4-Piperazine-2-carboxylic acid)-OH] | 2.4
3 | B2 | 3.7
4 | B3 | 3.8
5 | B4 | 5.4
6 | B5 | 2.8
7 | B6 | 9.6
8 | B7 | 3.8
9 | B8 | 5.85
10 | B9 | 4
11 | B10 | 26
12 | B11 | 5.5
13 | B12 | 3

molecular target: Recombinant human MASP2 enzyme (fragment corresponding to amino acids 297-686, C-terminal His Tag) (human, UniProt O00187 297-686); assay: cell-based or functional assay
Sequence (O00187 other isoform, or with tags, fused parts or gaps limits assumed): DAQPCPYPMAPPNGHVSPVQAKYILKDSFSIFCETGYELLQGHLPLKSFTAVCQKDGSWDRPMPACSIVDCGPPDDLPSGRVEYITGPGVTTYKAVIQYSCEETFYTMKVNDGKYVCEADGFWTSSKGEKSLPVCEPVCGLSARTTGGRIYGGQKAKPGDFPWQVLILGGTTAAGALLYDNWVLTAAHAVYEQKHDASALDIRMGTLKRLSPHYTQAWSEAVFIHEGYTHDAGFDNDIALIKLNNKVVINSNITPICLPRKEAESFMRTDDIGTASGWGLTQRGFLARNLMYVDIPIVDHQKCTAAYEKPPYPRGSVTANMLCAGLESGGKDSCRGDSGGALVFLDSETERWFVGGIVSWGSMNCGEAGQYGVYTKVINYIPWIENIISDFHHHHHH

Row | Binder | human MASP2 IC50 [nM]
14 | B1 | 35
15 | [Sar]ICSRSLP[Oic]I[Pen]I[(S)‑4‑Piperazine‑2‑carboxylic acid]-OH (disulfide 3-11) [((N-Me))-GIC+SRSLP-(Oic)-I-(Pen)+I-((S)-4-Piperazine-2-carboxylic acid)-OH] | 78
16 | B2 | 37
17 | B3 | 32
18 | B4 | 64
19 | B5 | 25
20 | B6 | 172
21 | B7 | 61
22 | B8 | 175
23 | B9 | 51
24 | B10 | 18
25 | B11 | 120
26 | B12 | 35
